# Measured values taken from patent US20200207829A1, “CHIMERIC RECEPTORS” (Oxford University Innovation Limited, priority 2017, published 2020).
# Columns and labels:
# Assay in all cases: cell-based or functional assay
# dCas9(N/C)-synBDKRB2 = molecular target: dCas9(N/C)-synBDKRB2
# TMt-dCas9(N/C)VP64 = molecular target: TMt-dCas9(N/C)VP64
# TMt-NES-dCas9VP64 = molecular target: TMt-NES-dCas9VP64
# [1] = molecular target: VEGFR2:TEV(N)-NES-dCas9(N)/VEGFR1:TEV(C)-NLS-dCas9(C)VP64 heterodimer, both with TCS(QG)
# dCas9(N/C)-synVEGFR1/2RI = molecular target: dCas9(N/C)-synVEGFR1/2RI
# [2] = molecular target: dCas9(N/C)-synVEGFR1/2 (heterodimer of dCas9(N)-synVEGFR2 with TCS(QL) and dCas9(C)-synVEGFR1 with TCS(QG))
# Sequence of VEGFA121 (P15692 other isoform, or with tags, fused parts or gaps limits assumed): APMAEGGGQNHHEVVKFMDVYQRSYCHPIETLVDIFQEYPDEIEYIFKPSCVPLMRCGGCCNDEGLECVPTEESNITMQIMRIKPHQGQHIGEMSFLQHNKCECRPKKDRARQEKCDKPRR
substance,measurement,setting,value
Bradykinin (from UniProt P01042 381-389) (peptide),fold increase in EYFP output activation score (HTLA cells),dCas9(N/C)-synBDKRB2,> 900 fold
same,"half-maximal effective agonist concentration (EC50), EYFP reporter dose-response, 0.01 nM-10 µM bradykinin",dCas9(N/C)-synBDKRB2,603 nM
TEV protease (from UniProt P04517 2038-2273) (enzyme),fold increase in output reporter activation score,TMt-dCas9(N/C)VP64,234 fold
same,fold increase in reporter activation score upon TEV expression,TMt-NES-dCas9VP64,35 fold
VEGFA121 (from UniProt P15692 181-395) (ligand),"EYFP activation score, VEGFA121-dependent ON/OFF fold differential (HEK-293T reporter assay)",[1],5.5 fold
same,"EYFP target gene induction with VEGFA121 and rapamycin together (AND gate, with FRB-VP64)",dCas9(N/C)-synVEGFR1/2RI,> 90 fold
same,"ASCL1 mRNA levels, RT-qPCR (FIG. 2F legend)",[2],50 fold
same,"ASCL1 mRNA levels, RT-qPCR, relative to the no-agonist condition",[2],48.3 fold
same,"TNFα mRNA, RT-qPCR, relative to no-agonist conditions",[2],18 fold
same,"TSP-1 mRNA, RT-qPCR, relative to no-agonist conditions",[2],16.2 fold
same,fold increase in EYFP activation score (FIG. 2D),[2],1180 fold
same,fold increase in EYFP activation score (HEK-293T reporter assay),[2],1000 fold
